T1: human FcRH5 protein fragment (soluble) (human, UniProt Q96RD9 16-851)
T1 construct: whole entry named; also called soluble human FcRH5; Human FcRH5 (BIACORE analyte)
T1 sequence: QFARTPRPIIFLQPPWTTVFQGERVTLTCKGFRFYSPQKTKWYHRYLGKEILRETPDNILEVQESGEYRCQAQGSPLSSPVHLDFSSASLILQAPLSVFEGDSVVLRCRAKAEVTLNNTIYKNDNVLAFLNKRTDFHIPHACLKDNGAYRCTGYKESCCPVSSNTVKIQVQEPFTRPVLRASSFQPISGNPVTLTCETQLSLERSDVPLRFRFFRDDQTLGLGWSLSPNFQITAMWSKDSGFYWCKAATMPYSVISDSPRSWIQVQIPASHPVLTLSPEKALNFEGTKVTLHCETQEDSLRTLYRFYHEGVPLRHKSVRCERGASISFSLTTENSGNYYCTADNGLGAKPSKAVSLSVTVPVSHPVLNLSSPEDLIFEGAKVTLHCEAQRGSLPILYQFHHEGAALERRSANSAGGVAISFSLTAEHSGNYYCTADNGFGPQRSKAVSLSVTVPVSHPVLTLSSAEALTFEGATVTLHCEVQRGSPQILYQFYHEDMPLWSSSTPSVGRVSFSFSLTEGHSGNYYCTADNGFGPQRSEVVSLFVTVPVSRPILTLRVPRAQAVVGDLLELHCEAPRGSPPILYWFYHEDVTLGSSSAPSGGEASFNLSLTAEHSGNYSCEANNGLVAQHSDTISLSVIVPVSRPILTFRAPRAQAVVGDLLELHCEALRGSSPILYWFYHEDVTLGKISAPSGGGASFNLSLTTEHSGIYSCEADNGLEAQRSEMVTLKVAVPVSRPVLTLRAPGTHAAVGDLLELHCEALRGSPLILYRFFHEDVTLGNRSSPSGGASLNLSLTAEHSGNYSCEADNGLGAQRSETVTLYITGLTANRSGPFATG


Legend:
[1] = target: T1, human FcRH5 protein fragment (soluble); test: SPR, hIgG capture, screening
Method: (§1) Briefly, a human IgG capture surface was generated on a Series S CM5 chip using amine coupling and the human IgG capture kit (GE Life Sciences, Piscataway, NJ). Test antibodies were then captured on flow cells 2, 3, or 4, with flow cell 1 used as a reference. An FcRH5 protein fragment was used as the analyte, with a flow rate of […]. Between injections the capture surface was regenerated by a 30-second injection of 3M magnesium chloride or 10 mM glycine, pH 1.5. Interactions were assessed at 25° C. in 10 mM HEPES pH7.4, 150 mM NaCl, and 0.05% Tween 20 (HBSP). Reference data from the reference flow cell and from injection of buffer alone were subtracted prior to kinetic analysis. Kinetic information was calculated by fitting data to a 1:1 binding model. Reference subtraction and data fitting were performed using BIAevaluation software (GE Life Sciences, Piscataway, NJ).
(§2) For affinity screening of HVR-H2 Trp52 and Met64 variants (Table 7), antibodies were expressed by transient transfection of Expi293 cells and purified using tip columns that were custom packed with affinity resin MabSelect SuRe (Glygen Corp., Columbia, MD & GE Life Sciences, Piscataway, NJ). […] Binding of FcRH5 protein fragment to captured antibodies was monitored at 100 nM and 500 nM. Association and dissociation were monitored at a flow rate of 40 μl/min, for 180 s and 300 s, respectively.

[2] = target: T1, human FcRH5 protein fragment (soluble); test: SPR (BIACORE), IgG captured via anti-human IgG, FcRH5 protein fragment as analyte (100 and 500 nM)
Method: as §1, §2

Row | Binder | Kd [1] [nM] | Kd [2] [nM]
1 | hu1G7.v1 heavy chain M64F with light chain of hu1G7.v1 (antibody, V domains shown, human IgG) VH: EVQLVESGPGLVKPSETLSLTCTVSGFSLTRFGVHWVRQPPGKGLEWLGVIWRGGSTDYNAAFFSRLTISKDNSKNQVSLKLSSVTAADTAVYYCSNHYYGSSDYALDNWGQGTLVTVSS VL: DIQMTQSPSSLSASVGDRVTITCKASQDVSNIVVWFQQKPGKSPKLLIYSASYRYTGVPSRFSGSGSGTDFTLTISSLQPEDFATYYCQQHYSSPYTFGQGTKVEIK | 26 | 25.9
2 | hu1G7.v1 heavy chain M64I with light chain of hu1G7.v1 (antibody, V domains shown, human IgG) VH: EVQLVESGPGLVKPSETLSLTCTVSGFSLTRFGVHWVRQPPGKGLEWLGVIWRGGSTDYNAAFISRLTISKDNSKNQVSLKLSSVTAADTAVYYCSNHYYGSSDYALDNWGQGTLVTVSS VL: DIQMTQSPSSLSASVGDRVTITCKASQDVSNIVVWFQQKPGKSPKLLIYSASYRYTGVPSRFSGSGSGTDFTLTISSLQPEDFATYYCQQHYSSPYTFGQGTKVEIK | 30 | 29.8
3 | hu1G7.v1 heavy chain M64L with light chain of hu1G7.v1 (antibody, V domains shown, human IgG) VH: EVQLVESGPGLVKPSETLSLTCTVSGFSLTRFGVHWVRQPPGKGLEWLGVIWRGGSTDYNAAFLSRLTISKDNSKNQVSLKLSSVTAADTAVYYCSNHYYGSSDYALDNWGQGTLVTVSS VL: DIQMTQSPSSLSASVGDRVTITCKASQDVSNIVVWFQQKPGKSPKLLIYSASYRYTGVPSRFSGSGSGTDFTLTISSLQPEDFATYYCQQHYSSPYTFGQGTKVEIK | 27 | 26.5
4 | hu1G7.v1 heavy chain M64I with light chain of hu1G7.v1.5 (antibody, V domains shown, human IgG) VH: EVQLVESGPGLVKPSETLSLTCTVSGFSLTRFGVHWVRQPPGKGLEWLGVIWRGGSTDYNAAFISRLTISKDNSKNQVSLKLSSVTAADTAVYYCSNHYYGSSDYALDNWGQGTLVTVSS VL: DIQMTQSPSSLSASVGDRVTITCKASQDVSNIVVWFQQKPGKSPKLLIYSGYYRYTGVPSRFSGSGSGTDFTLTISSLQPEDFATYYCQQQFQPPYTFGQGTKVEIK | 2.7 | 2.7
5 | hu1G7.v1 heavy chain M64I with light chain of hu1G7.v1.7 (antibody, V domains shown, human IgG) VH: EVQLVESGPGLVKPSETLSLTCTVSGFSLTRFGVHWVRQPPGKGLEWLGVIWRGGSTDYNAAFISRLTISKDNSKNQVSLKLSSVTAADTAVYYCSNHYYGSSDYALDNWGQGTLVTVSS VL: DIQMTQSPSSLSASVGDRVTITCKASQDVRNLVVWFQQKPGKAPKLLIYSGYYRYTGVPSRFSGSGSGTDFTLTISSLQPEDFATYYCQQHYQPPYTFGQGTKVEIK | 2.6 | 2.6
6 | hu1G7.v1 heavy chain M64F with light chain of hu1G7.v1.6 (antibody, V domains shown, human IgG) VH: EVQLVESGPGLVKPSETLSLTCTVSGFSLTRFGVHWVRQPPGKGLEWLGVIWRGGSTDYNAAFFSRLTISKDNSKNQVSLKLSSVTAADTAVYYCSNHYYGSSDYALDNWGQGTLVTVSS VL: DIQMTQSPSSLSASVGDRVTITCKASQDVSNIVVWFQQKPGKAPKLLIYSGYYRYSGVPSRFSGSGSGTDFTLTISSLQPEDFATYYCQQQYQPPYTFGQGTKVEIK | 2.6 | 2.6
7 | hu1G7.v1 heavy chain M64I with light chain of hu1G7.v1.6 (antibody, V domains shown, human IgG) VH: EVQLVESGPGLVKPSETLSLTCTVSGFSLTRFGVHWVRQPPGKGLEWLGVIWRGGSTDYNAAFISRLTISKDNSKNQVSLKLSSVTAADTAVYYCSNHYYGSSDYALDNWGQGTLVTVSS VL: DIQMTQSPSSLSASVGDRVTITCKASQDVSNIVVWFQQKPGKAPKLLIYSGYYRYSGVPSRFSGSGSGTDFTLTISSLQPEDFATYYCQQQYQPPYTFGQGTKVEIK | 2.7 | 2.7

The next binders have a lower Kd [1] than those just listed; values first:

Row | Kd [1] [nM] | Kd [2] [nM] | Binder
8 | 2.1 | 2.1 | hu1G7.v1 heavy chain M64I with light chain of hu1G7.v1.3 (antibody, V domains shown, human IgG) VH: EVQLVESGPGLVKPSETLSLTCTVSGFSLTRFGVHWVRQPPGKGLEWLGVIWRGGSTDYNAAFISRLTISKDNSKNQVSLKLSSVTAADTAVYYCSNHYYGSSDYALDNWGQGTLVTVSS VL: DIQMTQSPSSLSASVGDRVTITCKASQDVRNIVVWFQQKPGKAPKLLIYSGSYRYSGVPSRFSGSGSGTDFTLTISSLQPEDFATYYCQQQYSPPYTFGQGTKVEIK
9 | 1.4 | 1.4 | hu1G7.v1 heavy chain M64F with light chain of hu1G7.v1.5 (antibody, V domains shown, human IgG) VH: EVQLVESGPGLVKPSETLSLTCTVSGFSLTRFGVHWVRQPPGKGLEWLGVIWRGGSTDYNAAFFSRLTISKDNSKNQVSLKLSSVTAADTAVYYCSNHYYGSSDYALDNWGQGTLVTVSS VL: DIQMTQSPSSLSASVGDRVTITCKASQDVSNIVVWFQQKPGKSPKLLIYSGYYRYTGVPSRFSGSGSGTDFTLTISSLQPEDFATYYCQQQFQPPYTFGQGTKVEIK
10 | 2.5 | 2.5 | hu1G7.v1 heavy chain M64I with light chain of hu1G7.v1.4 (antibody, V domains shown, human IgG) VH: EVQLVESGPGLVKPSETLSLTCTVSGFSLTRFGVHWVRQPPGKGLEWLGVIWRGGSTDYNAAFISRLTISKDNSKNQVSLKLSSVTAADTAVYYCSNHYYGSSDYALDNWGQGTLVTVSS VL: DIQMTQSPSSLSASVGDRVTITCKASQDVRNLVVWFQQKPGKAPKLLIYSGSYRYSGVPSRFSGSGSGTDFTLTISSLQPEDFATYYCQQHYSPPYTFGQGTKVEIK
11 | 2.5 | 2.5 | hu1G7.v1 heavy chain M64L with light chain of hu1G7.v1.4 (antibody, V domains shown, human IgG) VH: EVQLVESGPGLVKPSETLSLTCTVSGFSLTRFGVHWVRQPPGKGLEWLGVIWRGGSTDYNAAFLSRLTISKDNSKNQVSLKLSSVTAADTAVYYCSNHYYGSSDYALDNWGQGTLVTVSS VL: DIQMTQSPSSLSASVGDRVTITCKASQDVRNLVVWFQQKPGKAPKLLIYSGSYRYSGVPSRFSGSGSGTDFTLTISSLQPEDFATYYCQQHYSPPYTFGQGTKVEIK
12 | 2.5 | 2.5 | hu1G7.v1 heavy chain M64F with light chain of hu1G7.v1.4 (antibody, V domains shown, human IgG) VH: EVQLVESGPGLVKPSETLSLTCTVSGFSLTRFGVHWVRQPPGKGLEWLGVIWRGGSTDYNAAFFSRLTISKDNSKNQVSLKLSSVTAADTAVYYCSNHYYGSSDYALDNWGQGTLVTVSS VL: DIQMTQSPSSLSASVGDRVTITCKASQDVRNLVVWFQQKPGKAPKLLIYSGSYRYSGVPSRFSGSGSGTDFTLTISSLQPEDFATYYCQQHYSPPYTFGQGTKVEIK
13 | 2.4 | 2.4 | hu1G7.v1 heavy chain M64F with light chain of hu1G7.v1.7 (antibody, V domains shown, human IgG) VH: EVQLVESGPGLVKPSETLSLTCTVSGFSLTRFGVHWVRQPPGKGLEWLGVIWRGGSTDYNAAFFSRLTISKDNSKNQVSLKLSSVTAADTAVYYCSNHYYGSSDYALDNWGQGTLVTVSS VL: DIQMTQSPSSLSASVGDRVTITCKASQDVRNLVVWFQQKPGKAPKLLIYSGYYRYTGVPSRFSGSGSGTDFTLTISSLQPEDFATYYCQQHYQPPYTFGQGTKVEIK
14 | 2.3 | 2.3 | hu1G7.v1 heavy chain M64L with light chain of hu1G7.v1.5 (antibody, V domains shown, human IgG) VH: EVQLVESGPGLVKPSETLSLTCTVSGFSLTRFGVHWVRQPPGKGLEWLGVIWRGGSTDYNAAFLSRLTISKDNSKNQVSLKLSSVTAADTAVYYCSNHYYGSSDYALDNWGQGTLVTVSS VL: DIQMTQSPSSLSASVGDRVTITCKASQDVSNIVVWFQQKPGKSPKLLIYSGYYRYTGVPSRFSGSGSGTDFTLTISSLQPEDFATYYCQQQFQPPYTFGQGTKVEIK
15 | 2.2 | 2.2 | hu1G7.v1 heavy chain M64F with light chain of hu1G7.v1.3 (antibody, V domains shown, human IgG) VH: EVQLVESGPGLVKPSETLSLTCTVSGFSLTRFGVHWVRQPPGKGLEWLGVIWRGGSTDYNAAFFSRLTISKDNSKNQVSLKLSSVTAADTAVYYCSNHYYGSSDYALDNWGQGTLVTVSS VL: DIQMTQSPSSLSASVGDRVTITCKASQDVRNIVVWFQQKPGKAPKLLIYSGSYRYSGVPSRFSGSGSGTDFTLTISSLQPEDFATYYCQQQYSPPYTFGQGTKVEIK
16 | 2.4 | 2.4 | hu1G7.v1 heavy chain M64L with light chain of hu1G7.v1.3 (antibody, V domains shown, human IgG) VH: EVQLVESGPGLVKPSETLSLTCTVSGFSLTRFGVHWVRQPPGKGLEWLGVIWRGGSTDYNAAFLSRLTISKDNSKNQVSLKLSSVTAADTAVYYCSNHYYGSSDYALDNWGQGTLVTVSS VL: DIQMTQSPSSLSASVGDRVTITCKASQDVRNIVVWFQQKPGKAPKLLIYSGSYRYSGVPSRFSGSGSGTDFTLTISSLQPEDFATYYCQQQYSPPYTFGQGTKVEIK

— patent US20240383984A1 (Genentech, published 2024)
